From paper doi:10.1101/491043
pKd: −log10 of the molar value.

Target: M. tuberculosis ClpX (M. tuberculosis) (UniProt P9WPB9)
Experiment: SPR

Substance	pKd	fold reduction in binding against σ^D/RsdA [fold]
σ^D/RsdA complex (from UniProt P9WGG8;H8EZ77)	7.84	
σ^K/RskA complex (from UniProt A5TZH1;A5TZH0)	6.79	
σ^L/RslA complex (from UniProt H8EXN1;H8EXN2)		10
σ^M/RsmA complex	6.88	
